Measured values as given in patent US8710180B2, “VEGF-specific capture agents, compositions, and methods of using and making” (Indi Molecular, Inc., priority 2011, dated 2014).

Tests used:
[1] = target: T1, VEGF165 binding to Avastin® Fab (Homo sapiens, UniProt P15692); experiment: competitive ELISA, inhibition of VEGF165 binding to Avastin Fab; details: 10 nM biotinylated VEGF165, Avastin Fab coated plate
T1 construct: biotin (chemical labelling)
T1 sequence (P15692 27-191 isoform P15692-4): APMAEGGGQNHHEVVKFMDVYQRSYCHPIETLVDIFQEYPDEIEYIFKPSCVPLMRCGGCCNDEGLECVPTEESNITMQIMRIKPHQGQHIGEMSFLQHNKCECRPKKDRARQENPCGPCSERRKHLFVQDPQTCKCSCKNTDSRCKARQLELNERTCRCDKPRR
Procedure: Using an excitation wavelength of 535 nm, fluorescent emission at 595 nm was recorded by Beckman Coulter DTX880 photometer (Brea, Calif.) as a function of capture agent concentration. The titration curves were fit using a four-parameter regression curve fitting program (Origin 8.5, Northampton, Mass.). Concentrations of peptides corresponding to the midpoint absorbance of the titration curve were calculated and used as the IC50 values.

[2] = target: T2, VEGF165 (Homo sapiens, UniProt P15692); experiment: pull-down (immunoprecipitation) of VEGF165 from spiked buffer or human serum, Western blot and silver stain; assay type: binding; details: VEGF165-spiked buffer (B) vs 25% human serum (S)
T2 construct: purchased Abcam ab56620
T2 sequence (P15692 27-191 isoform P15692-4): T1 sequence (P15692 27-191 isoform P15692-4)
Procedure: A pull-down assay was used to assess capture agent specificity for VEGF by measuring the ability of the capture agents to purify VEGF165 from buffer or complex media such as human serum. Capture agents were immobilized on streptavidin-functionalized magnetic beads, and the resultant resins were panned with VEGF165-spiked serum or buffer.
Pull-down detection of VEGF165 was performed using a modified immunoprecipitation technique that incorporated capture agents rather than antibody. […] A vehicle-only control (0.1% DMSO, v/v) accompanied each sample.
Proteins were captured by BSA-blocked Dynabeads® M-280 Streptavidin (Invitrogen, #112-05D) under rotation at 4° C. for 4 hours (100 μL of 50% slurry per pull-down condition). Beads were separated from the serum or buffer matrix by application of the DynaMag™-Spin magnet (Invitrogen, #123-20D), and captured proteins were eluted from the beads in 30 μL of reducing Laemmli buffer. Eluted samples were subjected to 12% SDS-PAGE separation at 200 V for 30 minutes in 1×TGS (25 mM Tris, 192 mM Glycine, 0.1% SDS (w/v), pH 8.3). Samples were subsequently electrophoretically transferred to a nitrocellulose membrane in 25 mM Tris, 192 mM Glycine, pH 8.3, containing 20% (v/v) methanol (Bio-Rad Laboratories, Hercules, Calif.) at 100 V for 45 minutes. […]

[3] = target: T2, VEGF165; experiment: direct solid-phase ELISA, binding of capture agents to VEGF165; details: immobilized VEGF165; KD estimated as concentration at half-maximal fluorescent emission
Procedure: The equilibrium dissociation constant (KD) for the capture agents may be estimated as the concentration corresponding to half-maximal fluorescent emission. Assaying multiple capture agents in parallel permits relative and absolute comparison of in vitro binding.
After washing each well with PBS (3×), the plate was filled with 5% non-fat dry milk in TBS (25 mM Tris, 150 mM NaCl, pH 7.25) containing 0.1% (v/v) Triton X-100 and blocked for 2 hours at 25° C. […] After washing all microwells with TBS/0.1%(v/v) Triton X-100 (5×), 0.1 μg/mL Streptavidin Poly-HRP conjugate (Pierce, Ill.) in TBS/0.1%(v/v) Triton X-100 was incubated for 30 minutes at 25° C. The plate was aspirated and washed with TBS/0.1% (v/v) Triton X-100 (5×), followed by TBS (5×), and then developed by adding QuantaRed^TM Enhanced Chemifluorescent HRP Substrate. Using an excitation wavelength of 535 nm, fluorescent emission at 595 nm was recorded by Beckman Coulter DTX880 photometer (Brea, Calif.) as a function of capture agent concentration. The titration curves were fit using a four-parameter regression curve fitting program (Origin 8.5, Northampton, Mass.).

Substance: X-VEPNCDIHVMWEWECFERL-Tz4-lfrew-Tz4-eeird [Triligand 2]
- IC50 [1]: 400 nM
- capture of VEGF in buffer vs. serum [2]: captures equivalent amounts of VEGF in buffer and serum
- Kd [3]: ~15 nM
